Reference: article PMC6432644

Molecular target: Hsp90AA1-MC, HA-tagged
Test: native gel or EMSA

stoichiometry N: 2
Substance: Hsp90AA1-MC, HA-tagged (domain or fragment)
